Source: patent US20180291362A1 (SEOUL NATIONAL UNIVERSITY R AND DB FOUNDATION, published 2018)

Target: the molecule itself
Assay: non-reducing vs reducing SDS PAGE, subunit self-association (disulfide cross-link)
Description: In order to observe the disulfide bonding of lysine decarboxylase mutant strain, the protein sizes when reducing power was applied and not applied to wild type lysine decarboxylase LdcI (SEQ ID NO: 15) and the mutant strain wherein phenylalanine at position 14 is substituted with cysteine, and lysine at position 44 is substituted with cysteine (F14C/K44C, SEQ ID NO: 6) were measured with SDS PAGE. Such a measurement can confirm whether a shared bond is formed between sulfur elements in a form —S—S— wherein two SH groups added to the mutant strain are producing in oxidation. In a reducing SDS PAGE, reducing power is applied to both of the wild type and the mutant strain to break all disulfides where bonding is possible, and then the sizes are observed, and in non-reducing SDS PAGE, it was observed whether disulfide bond is formed.

B1: lysine decarboxylase LdcI mutant strain wherein phenylalanine at position 14 is substituted with cysteine, and lysine at position 44 is substituted with … (enzyme)
chain: MNVIAILNHMGVYCKEEPIRELHRALERLNFQIVYPNDRDDLLCLIENNARLCGVIFDWDKYNLELCEEISKMNENLPLYAFANTYSTLDVSLNDLRLQISFFEYALGAAEDIANKIKQTTDEYINTILPPLTKALFKYVREGKYTFCTPGHMGGTAFQKSPVGSLFYDFFGPNTMKSDISISVSELGSLLDHSGPHKEAEQYIARVFNADRSYMVTNGTSTANKIVGMYSAPAGSTILIDRNCHKSLTHLMMMSDVTPIYFRPTRNAYGILGGIPQSEFQHATIAKRVKETPNATWPVHAVITNSTYDGLLYNTDFIKKTLDVKSIHFDSAWVPYTNFSPIYEGKCGMSGGRVEGKVIYETQSTHKLLAAFSQASMIHVKGDVNEETFNEAYMMHTTTSPHYGIVASTETAAAMMKGNAGKRLINGSIERAIKFRKEIKRLRTESDGWFFDVWQPDHIDTTECWPLRSDSTWHGFKNIDNEHMYLDPIKVTLLTPGMEKDGTMSDFGIPASIVAKYLDEHGIVVEKTGPYNLLFLFSIGIDKTKALSLLRALTDFKRAFDLNLRVKNMLPSLYREDPEFYENMRIQELAQNIHKLIVHHNLPDLMYRAFEVLPTMVMTPYAAFQKELHGMTEEVYLDEMVGRINANMILPYPPGVPLVMPGEMITEESRPVLEFLQMLCEIGAHYPGFETDIHGAYRQADGRYTVKVLKEESKK
modifications: disulfide bond between the introduced cysteines (positions 14 and 44) of neighbouring subunits
notes: Purified enzyme; also called F14C/K44C; F14C/K44C mutant strain
binding result: binds
